Reference: doi:10.1101/2024.10.02.616253 (bioRxiv, 2024)

Target: BTN3A1 ectodomain (human, UniProt O00481)
Test: SPR

Sequence of BTN3A1 ectodomain (O00481 30-254): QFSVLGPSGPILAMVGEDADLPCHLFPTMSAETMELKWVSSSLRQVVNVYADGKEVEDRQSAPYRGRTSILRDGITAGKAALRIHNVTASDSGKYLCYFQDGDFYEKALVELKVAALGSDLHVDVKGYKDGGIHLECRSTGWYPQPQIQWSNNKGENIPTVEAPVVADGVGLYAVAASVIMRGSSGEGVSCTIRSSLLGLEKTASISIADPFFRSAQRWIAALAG

B1: TH001 monoclonal antibody (antibody, V domains shown)
VH: EVHVKQSGAELARPGTSVKLSCKASGYTFTDYYLNWVKQRTGQGLEWIGEIYPGGGNTYYNEKFKGKATLTADKSSSTAYMQLSSLTSEDSAVYFCARRTTVVGDYWGQGTTLTVSS
VL: DVLMTQTPLSLPVSLGDQASISCRSSQSIVNSKGNTYLEWYVQKPGQSPKLLIYKVSNRFSGVPDRFSGSGSGTDFTLKISRVEAEDLGVYYCFQGSHVPWTFGGGTKLEIK
binding result: binds
